We go through 1 substance from publication PMC3086059.

In this experiment the target is Mua fused to the T18 or T25 fragment of adenylate cyclase (BACTH) (Helicobacter pylori). Kind of experiment: two-hybrid. Particulars: scale: Miller units per mg of bacterial dry weight.

“Mua fused to the T18 or T25 fragment of adenylate cyclase (BACTH) (natural protein)” gave a beta-galactosidase activity of 1920 to 2980.
